Results: paper PMC6356362

Target: recombinant GP of EBOV (Mayinga strain), mucin and TM domains-deleted protein (GP[change] sequence w (Zaire ebolavirus (EBOV), Mayinga strain), Q05320
Assay: SPR
Settings: remark: other sources report otherwise

B1: recombinant human surfactant protein D (hSP-D) dodecamers, P35247 21-375 (natural protein)
chain: AEMKTYSHRTMPSACTLVMCSSVESGLPGRDGRDGREGPRGEKGDPGLPGAAGQAGMPGQAGPVGPKGDNGSVGEPGPKGDTGPSGPPGPPGVPGPAGREGPLGKQGNIGPQGKPGPKGEAGPKGEVGAPGMQGSAGARGLAGPKGERGVPGERGVPGNTGAAGSAGAMGPQGSPGARGPPGLKGDKGIPGDKGAKGESGLPDVASLRQQVEALQGQVQHLQAAFSQYKKVELFPNGQSVGEKIFKTAGFVKPFTEAQLLCTQAGGQLASPRSAAENAALQQLVVAKNEAAFLSMTDSKTEGKFTYPTGESLVYSNWAPGEPNDDGGSEDCVEIFTNGKWNDRACGEKRLVVCEF
- Kd: 0.33 nM
- koff: 0.00121 s⁻¹
- kon: 3.65e+06 M⁻¹ s⁻¹
